Data on one substance can be found in article doi:10.1101/2022.09.26.509586.

The test concerns the target piggyBac transposase residues 1-558 (PB1-558) (cabbage looper moth). The experiment in a line: AUC.

With “piggyBac transposase residues 1-558 (PB1-558) (domain or fragment)”, the stoichiometry N worked out at 2.
